# Measurements as given in patent US20080274993.
# Test system: DSCR1-FLAG (human Down syndrome critical region 1, C-terminal FLAG epitope)
# Sequence (chain, as listed by the source): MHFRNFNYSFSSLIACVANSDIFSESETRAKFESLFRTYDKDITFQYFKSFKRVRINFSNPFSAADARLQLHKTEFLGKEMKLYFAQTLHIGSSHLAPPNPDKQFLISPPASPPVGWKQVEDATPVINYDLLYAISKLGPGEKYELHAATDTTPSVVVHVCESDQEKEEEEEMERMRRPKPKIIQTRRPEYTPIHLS
substance,measurement,value
calcineurin A (CnA),NFATc1 phosphorylation status (Western blot of extracts of activated HUVECs),a shift from the dephosphorylated form of NFATc1 to the phosphorylated form in response to DSCR1
